From the supplement of paper PMC9112550, “Optimization of the antimicrobial peptide Bac7 by deep mutational scanning” (BMC Biology, 2022) come the findings set out here.

In the data set the test system is Escherichia coli TOP10. Nature of the data set: shrunken log2 fold change of peptide-encoding DNA abundance (4.5 h post-induction vs induction); higher = less antimicrobial activity (less host growth inhibition). As to conditions: time post-induction: 4.5 h; library: site-saturation at positions 5, 18, 19, 20.
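Further: peptides expressed intracellularly from a pBAD plasmid library in pooled LB shake-flask culture, induced with 0.3% L-arabinose, DNA abundance read by NGS, three biological replicates, DESeq2 with apeglm shrinkage.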

Turning to RRIRWRPPRLPRPRPRPMEDPRP, the “shrunken log2 fold change” value stood at 0.383.

For the sequence RRIRFRPPRLPRPRPRPGVWPRP, the “shrunken log2 fold change” value turned out to be 0.507. Then RRIRNRPPRLPRPRPRPMVDPRP, with -0.131; and RRIRQRPPRLPRPRPRPPNYPRP, with 0.195. Under RRIRDRPPRLPRPRPRPFPIPRP stands 0.0144; under RRIRDRPPRLPRPRPRPFGHPRP, -0.138. Then RRIRMRPPRLPRPRPRPNAGPRP, with 0.416; and RRIRSRPPRLPRPRPRPQGDPRP, with 0.36; and RRIRIRPPRLPRPRPRPPWFPRP, with -0.136. Turning to RRIRFRPPRLPRPRPRPADIPRP, the “shrunken log2 fold change” value came out at 0.131. Under RRIRYRPPRLPRPRPRPHPNPRP stands -0.758; under RRIRWRPPRLPRPRPRPFMGPRP, 0.0373. Then RRIRKRPPRLPRPRPRPFVFPRP, with 0.277. Then RRIRARPPRLPRPRPRPYMQPRP, with -0.53. With RRIRHRPPRLPRPRPRPFRGPRP, the “shrunken log2 fold change” value was -0.254. RRIRWRPPRLPRPRPRPINYPRP: the “shrunken log2 fold change” value is -0.387. Regarding RRIRRRPPRLPRPRPRPIQPPRP, the “shrunken log2 fold change” value was -0.0245. On to RRIRGRPPRLPRPRPRPGKLPRP, for which the “shrunken log2 fold change” value is 0.461. On to RRIRERPPRLPRPRPRPHMHPRP, for which the “shrunken log2 fold change” value was -0.687. Under RRIRYRPPRLPRPRPRPSPKPRP stands -0.105; under RRIRKRPPRLPRPRPRPPFTPRP, 0.243; under RRIRIRPPRLPRPRPRPDIFPRP, -0.828.

With RRIRHRPPRLPRPRPRPDMWPRP, the “shrunken log2 fold change” value was -0.175. Under RRIRWRPPRLPRPRPRPSAFPRP stands 0.0981. In the case of RRIRFRPPRLPRPRPRPVPDPRP, the “shrunken log2 fold change” value was -0.136.

Take RRIRWRPPRLPRPRPRPAITPRP: the “shrunken log2 fold change” value amounted to 0.188. Under RRIRDRPPRLPRPRPRPHDLPRP stands -0.0733. Under RRIRDRPPRLPRPRPRPDQSPRP stands 0.0019; under RRIRCRPPRLPRPRPRPWVTPRP, -0.652. Then RRIRFRPPRLPRPRPRPYHEPRP, with -0.26; and RRIRPRPPRLPRPRPRPMHHPRP, with -0.194; and RRIRMRPPRLPRPRPRPKTMPRP, with -0.0578.

Turning to RRIRVRPPRLPRPRPRPVVKPRP, the “shrunken log2 fold change” value is -0.214.

On to RRIRTRPPRLPRPRPRPISNPRP, for which the “shrunken log2 fold change” value is -0.576. Under RRIRTRPPRLPRPRPRPANVPRP stands -0.0276; under RRIRCRPPRLPRPRPRPIWHPRP, -0.239.

Turning to RRIRGRPPRLPRPRPRPVHEPRP, the “shrunken log2 fold change” value is 0.434. Under RRIRLRPPRLPRPRPRPELHPRP stands 0.327; under RRIRDRPPRLPRPRPRPATDPRP, 0.0254. Under RRIRQRPPRLPRPRPRPCHIPRP stands -0.0316; under RRIRFRPPRLPRPRPRPSTLPRP, -0.757; under RRIRHRPPRLPRPRPRPKYGPRP, 0.0196. In the case of RRIRQRPPRLPRPRPRPECAPRP, the “shrunken log2 fold change” value came to 0.407. Consider RRIRYRPPRLPRPRPRPWQQPRP, for which the “shrunken log2 fold change” value was -0.273. Under RRIRDRPPRLPRPRPRPGPGPRP stands 0.764; under RRIRWRPPRLPRPRPRPGMMPRP, 0.113. Under RRIRVRPPRLPRPRPRPKSTPRP stands -0.158; under RRIRTRPPRLPRPRPRPARKPRP, 0.179; under RRIRYRPPRLPRPRPRPKWVPRP, -0.0135. Then RRIRQRPPRLPRPRPRPFKPPRP, with -0.0337.

RRIRERPPRLPRPRPRPLRCPRP: the “shrunken log2 fold change” value is 0.187.

Consider RRIRCRPPRLPRPRPRPGFKPRP, for which the “shrunken log2 fold change” value was -0.226. Under RRIRRRPPRLPRPRPRPVNAPRP stands 0.37; under RRIRMRPPRLPRPRPRPHGMPRP, -0.0062. Under RRIRFRPPRLPRPRPRPTNDPRP stands -0.414.

In the case of RRIRERPPRLPRPRPRPTHTPRP, the “shrunken log2 fold change” value was -0.409. Then RRIRKRPPRLPRPRPRPAIQPRP, with 0.396.

RRIRPRPPRLPRPRPRPPPTPRP: the “shrunken log2 fold change” value is 0.761. For the sequence RRIRQRPPRLPRPRPRPNTEPRP, the “shrunken log2 fold change” value is -0.0119. Then RRIRHRPPRLPRPRPRPVSYPRP, with -0.00133; and RRIRLRPPRLPRPRPRPWTNPRP, with 0.0169; and RRIRFRPPRLPRPRPRPGDWPRP, with 0.666. Under RRIRQRPPRLPRPRPRPPCEPRP stands -0.00701; under RRIRKRPPRLPRPRPRPYLVPRP, -0.634. As to RRIRERPPRLPRPRPRPGMLPRP, the “shrunken log2 fold change” value is -0.0705. Under RRIRWRPPRLPRPRPRPDNSPRP stands -0.0707. Then RRIRLRPPRLPRPRPRPSHQPRP, with -0.231. Then RRIRSRPPRLPRPRPRPIMQPRP, with -0.216; and RRIRCRPPRLPRPRPRPTVYPRP, with -0.915. RRIRFRPPRLPRPRPRPDKIPRP: the “shrunken log2 fold change” value was -0.0546. Then RRIRGRPPRLPRPRPRPRRLPRP, with 0.502; and RRIRKRPPRLPRPRPRPVQYPRP, with 0.071; and RRIRVRPPRLPRPRPRPYVIPRP, with -0.189. As for RRIRRRPPRLPRPRPRPDRPPRP, the “shrunken log2 fold change” value stood at 0.13.

RRIRPRPPRLPRPRPRPRWSPRP: the “shrunken log2 fold change” value was determined as 0.108.

On to RRIRLRPPRLPRPRPRPDLIPRP, for which the “shrunken log2 fold change” value was -0.0276.

Turning to RRIRTRPPRLPRPRPRPSSMPRP, the “shrunken log2 fold change” value was -0.239. Then RRIRQRPPRLPRPRPRPRSDPRP, with -0.208. On to RRIRQRPPRLPRPRPRPSTGPRP, for which the “shrunken log2 fold change” value is -0.0811. Then RRIRQRPPRLPRPRPRPNICPRP, with 0.0129.

For the sequence RRIRERPPRLPRPRPRPMMPPRP, the “shrunken log2 fold change” value was 0.0391.

As for RRIRFRPPRLPRPRPRPAVYPRP, the “shrunken log2 fold change” value was -0.35. Under RRIRFRPPRLPRPRPRPEANPRP stands 0.666; under RRIRWRPPRLPRPRPRPCRNPRP, -0.0199; under RRIRCRPPRLPRPRPRPVWCPRP, -0.269.

RRIRIRPPRLPRPRPRPCGVPRP: the “shrunken log2 fold change” value is -0.153. For RRIRERPPRLPRPRPRPTFYPRP, the “shrunken log2 fold change” value is -0.18.

Consider RRIRVRPPRLPRPRPRPFPDPRP, for which the “shrunken log2 fold change” value is -0.345. RRIRKRPPRLPRPRPRPKREPRP: the “shrunken log2 fold change” value worked out at 0.393. Then RRIRCRPPRLPRPRPRPEGRPRP, with 0.0128. Under RRIRYRPPRLPRPRPRPRVAPRP stands 0.0343.
